Source: patent US20160152703A1 (PERSEUS PROTEOMICS, published 2016)

Legend:
[1] = target: T1, human CDH3 (P-cadherin), endogenous, on cancer cells (human, UniProt P22223 108-829); assay: FACS competition on a CDH3-expressing cell line; competitor: Alexa488-labeled NITE BP-989 antibody
T1 construct: Endogenous CDH3 on NCI-H358 and other human cancer cells or tissues; also called CDH3 on NCI-H358; CDH3-expressing cancer cell line

[2] = target: T2, full-length human CDH3 with myc-His tag, forcibly expressed on CHO cells (EXZ1501) (human, UniProt P22223 108-829); assay: flow cytometry on CHO cells with forcible expression of CDH3
T2 construct: Clones were selected by Western blotting with an anti-c-Myc antibody; also called CDH3 full-length expression CHO cell line (EXZ1501); CHO cells with forcible expression of CDH3; not shown: C-terminal myc-His tag from vector pEF4/myc-HisB

[3] = target: T1, human CDH3 (P-cadherin), endogenous, on …; assay: flow cytometry on NCI-H358 cells, antibody at 10 ug/mL
Description: A cell line that would be used as a reaction target (an NCI-H358 cell line that had been confirmed to express CDH3 at a high level) was treated with 2 mM EDTA-PBS, so that the cells were removed from a culture plate, and the obtained cells were then suspended in a FACS solution to a cell density of 1×10⁶ cells/mL. This cell suspension was seeded on a 96-well plate, resulting in an amount of 50 μL/well, and the purified chimeric antibody was then added to the plate to result in a concentration of 10 μg/mL, followed by performing a reaction at 4° C. for 60 minutes. Thereafter, the reaction mixture was washed with a FACS solution (150 μL/well) two times, and 4 μg/ml AlexaFlour488-labeled anti-human IgG/goat F(ab′)₂ (Invitrogen) was then added to the resultant. The obtained mixture was reacted at 4° C. for 30 minutes. Thereafter, the cells were washed with a FACS solution two times, and was then subjected to flow cytometry.

[4] = target: T1, human CDH3 (P-cadherin), endogenous, on …; assay: FACS competition on NCI-H358; competitor: Alexa488-labeled NITE BP-989 antibody; IC50 relative to the antibody without drug, average DAR 0 to 8
Description: The influence of humanization on affinity was confirmed by carrying out a competition test using a flow cytometer (FACS). A test antibody whose dilution series had been prepared, a cell line that expressed CDH3, and a certain amount of Amaxa488-labeled antibody that was competitive with the test antibody were allowed to coexist, and the reaction was then carried out at room temperature for 1 hour. Thereafter, the reaction product was washed with a FACS solution, and FACS measurement was then carried out. […] The obtained IC50 value was defined as an index for affinity.
The influence of the average drug-to-antibody ratio (DAR) of the drug binding to the humanized antibody of the present invention on affinity was confirmed by the same competition test using FACS as that in Example 25. The antibody drug conjugate was prepared in the range of average DAR of 0 to 8 by the method described in Example 15. The DAR was quantified by the method described in Example 16.
As a cell line, NCI-H358 was used. […] By the same FACS competition test as that described in Example 25, each IC50 value was calculated as an index for affinity.

T1 sequence (P22223 108-829 limits assumed): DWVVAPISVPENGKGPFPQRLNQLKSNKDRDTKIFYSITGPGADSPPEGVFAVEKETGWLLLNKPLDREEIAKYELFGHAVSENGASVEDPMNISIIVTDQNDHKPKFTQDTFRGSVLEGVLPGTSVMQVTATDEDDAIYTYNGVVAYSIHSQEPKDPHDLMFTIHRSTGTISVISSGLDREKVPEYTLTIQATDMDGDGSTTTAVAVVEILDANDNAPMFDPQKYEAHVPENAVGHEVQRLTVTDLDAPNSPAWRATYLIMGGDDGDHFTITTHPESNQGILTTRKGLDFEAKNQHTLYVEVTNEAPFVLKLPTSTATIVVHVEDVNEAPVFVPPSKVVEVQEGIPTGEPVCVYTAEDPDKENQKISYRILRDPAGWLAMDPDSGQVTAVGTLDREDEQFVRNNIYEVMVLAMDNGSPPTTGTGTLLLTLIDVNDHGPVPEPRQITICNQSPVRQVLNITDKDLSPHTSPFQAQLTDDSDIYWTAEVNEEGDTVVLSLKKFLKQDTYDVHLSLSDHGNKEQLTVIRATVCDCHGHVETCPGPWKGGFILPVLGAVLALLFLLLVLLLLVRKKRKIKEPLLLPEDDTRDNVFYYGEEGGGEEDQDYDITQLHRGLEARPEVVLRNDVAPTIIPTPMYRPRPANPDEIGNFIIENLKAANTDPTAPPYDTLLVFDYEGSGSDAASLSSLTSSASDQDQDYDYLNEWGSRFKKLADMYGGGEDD
T2 sequence (P22223 108-829): as the sequence (P22223 108-829 limits assumed) above

Binder	binding result [1]	binding result [2]	binding result [3]	binding result [4]
PPAT-076-44Hd (antibody, V domains shown, also called anti-CDH3 humanized antibody (human germline framework, reshaped); humanized antibody) VH: QVQLVESGGGVVQPGRSLRLSCAASGFSLTSYGVHWVRQAPGKGLEWVGVIWSGGSTDYADSVKGRFTISKDNSKNTVYLQMNSLRAEDTAVYYCARNSNNGFAYWGQGTLVTVSS VL: DIQLTQSPSSLSASVGDRVTITCRASQNIYSNLAWYQQKPGKAPKLLVYAAKNLASGVPSRFSGSGSGTDFTLTISSLQPEDFATYYCQHFYDTPWTFGQGTKVEIK	binds	binds	–	–
PPAT-076-44Hb (antibody, V domains shown, also called anti-CDH3 humanized antibody (human consensus framework, reshaped)) VH: EVQLVESGGGLVQPGGSLRLSCAASGFSLTSYGVHWVRQAPGKGLEWVAVIWSGGSTDYADSVKGRFTISKDNSKNTVYLQMNSLRAEDTAVYYCARNSNNGFAYWGQGTLVTVSS VL: DIQMTQSPSSLSASVGDRVTITCRASQNIYSNLAWYQQKPGKAPKLLVYAAKNLASGVPSRFSGSGSGTDFTLTISSLQPEDFATYYCQHFYDTPWTFGQGTKVEIK	–	binds	binds	–
PPAT-076-44Hd, to which a drug is bound (DM1 conjugate) (antibody, human IgG1, V domains shown, DM1 bound through Sulfo-SMCC; sites not stated, Human IgG1/kappa; also called CDH3 antibody drug conjugate of PPAT-076-44Hd; drug conjugate of PPAT-076-44Hd) VH: QVQLVESGGGVVQPGRSLRLSCAASGFSLTSYGVHWVRQAPGKGLEWVGVIWSGGSTDYADSVKGRFTISKDNSKNTVYLQMNSLRAEDTAVYYCARNSNNGFAYWGQGTLVTVSS VL: DIQLTQSPSSLSASVGDRVTITCRASQNIYSNLAWYQQKPGKAPKLLVYAAKNLASGVPSRFSGSGSGTDFTLTISSLQPEDFATYYCQHFYDTPWTFGQGTKVEIK	–	–	–	binds
PPAT-076-44Hb, to which a drug is bound (DM1 conjugate) (antibody, human IgG1, V domains shown, DM1 bound through Sulfo-SMCC; sites not stated, Human IgG1/kappa; also called CDH3 antibody drug conjugate of PPAT-076-44Hb; humanized antibody drug conjugate) VH: EVQLVESGGGLVQPGGSLRLSCAASGFSLTSYGVHWVRQAPGKGLEWVAVIWSGGSTDYADSVKGRFTISKDNSKNTVYLQMNSLRAEDTAVYYCARNSNNGFAYWGQGTLVTVSS VL: DIQMTQSPSSLSASVGDRVTITCRASQNIYSNLAWYQQKPGKAPKLLVYAAKNLASGVPSRFSGSGSGTDFTLTISSLQPEDFATYYCQHFYDTPWTFGQGTKVEIK	–	–	–	binds
